In publication doi:10.1101/732289 (bioRxiv, 2020):

Molecular target: human KIX domain of CBP with saturating DUX4 9aaTAD peptide (human, UniProt Q92793;Q9UBX2)
Assay: MST

Sequence of human KIX domain of CBP with saturating DUX4 9aaTAD peptide (Q92793 587-673, one chain of several): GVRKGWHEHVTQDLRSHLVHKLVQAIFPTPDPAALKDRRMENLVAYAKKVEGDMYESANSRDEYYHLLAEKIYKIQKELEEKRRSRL

Kd: ~1100 nM
B1: DUX4 KBM peptide (E414-E423) (peptide)
peptide: EEEYRALLEE
